Data set [1] deals with rat model of complete heart block. Briefly: Effect of TGF-beta small molecule inhibitor on ventricular pacing with TBX18 mRNA. Type of data set: in vivo. To be noted: A83-01 released by osmotic pump. The method, then: On Day 0, an osmotic pump releasing A83-01 (a TGF-beta inhibitor, Sigma Aldrich) was implanted into the rats. On Day 1, TBX18 mRNA was injected into the rats and a telemetry device was also implanted. Two doses of TBX18 mRNA were given to the rats: (i) a low dose of 100 μg TBX18 mRNA with 68.4 μl RNA-free phosphate-buffered saline (PBS), or (ii) a high dose of 300 μg TBX18 mRNA with 205 μl RNA-free PBS. A continuous telemetry recording of each rat's electrocardiogram (ECG) was made for 21 days after implantation of the telemetry device. In addition, 3-lead surface ECGs were performed on anesthetized animals on Days 7, 14, and 21 along with an isoproterenol challenge. The heart was harvested from each animal on Day 21.
The inventors then determined the effects of including a TGF-beta small molecule inhibitor on ventricular pacing with TBX18 mRNA (FIG. 16).

Data set [2] has as its system neonatal rat ventricular cardiomyocytes (NRVMs). In words: Capture of CatCh transfected NRVMs by 475 nm blue light stimulation. Type of data set: cell-based. The method, then:
(§1) As a first step, the inventors expressed CatCh in neonatal rat ventricular cardiomyocytes (NRVMs) using IVT mRNA. Transfection conditions were varied using GFP mRNA. After identifying the optimal vehicle for transfection (Viromer Red), the expression of the protein of interest, CatCh-V5, was assessed after a 24 hour pulse of mRNA. […] CatCh-V5 localized to the membrane of transfected cells roughly 12 hours after transfection. […] The inventors next evaluated the function of transfected NRVMs. CatCh is an opsin, which induces a membrane depolarization in response to blue light stimulation. CatCh transfected NRVMs were exposed to a range of optical intensities (0 to 100% power) using 475 nm blue LED light. At each light intensity, the inventors scanned a range of stimulation durations (1 to 15 milliseconds). A train of monophasic square waves at a frequency of 2 Hz for a total of 30 seconds was utilized. The inventors compared the capture rate of CatCh versus Channelrhodopsin 2 (ChR2), a commonly used opsin. […] Cells were then subjected to blue light stimulation and analyzed for capture at different transfection amounts and timepoints.

Data set [3] shares this test system. Briefly: CatCh-V5 expression time course by imaging and flow cytometry. The data set is classed as cell-based. To be noted: 24 hour pulse of mRNA; Viromer Red. The method, then:
as §1
Background: Flow cytometry measures light scatter and fluorescence of single cells or particles in a stream.

For data set [4], the system named is neonatal rat ventricular myocytes (NRVMs). Briefly: MEA light pacing of NRVMs transfected with ChR2 or CatCH mRNA. Type of data set: cell-based. An excerpt: For proper characterization of cells transfected with opsins, in addition to protein expression, another metric, function, can assist in properly optimizing the use of mRNA as an expression vector. Functional characterization can be performed with the use of a multi-electrode array (MEA). An MEA device uses electrodes to measure the field potential of nearby cells. Changes in field potential in cardiomyocytes can be detected in an amplitude and location-specific manner depending on the pickup electrode. The MEA device used, a Maestro from Axion Biosystems, allows the simultaneous measurement and light excitation of 16 electrodes per well in a 48 well plate. By employing primary ventricular cardiomyocytes from neonatal rats (NRVMs), functional expression of an opsin such as ChR2 can be measured as a synchronization event between electrical activity and pulsed light excitation from the LEDs embedded in the Axion Lumos device.
Pacing cardiac myocytes allows the screening of new drugs in a controlled environment, where the effect on beat frequency and waveforms can be measured against predicted values in the presence/absence of drugs. The inventors transfected neonatal rat ventricular myocytes (NRVMs) with mRNA encoding ChR2 and a modified ChR2 with a single amino acid substitution, CatCH. NRVMs were plated on MEA plates and the next day were transfected with ChR2 or CatCH mRNA at varying concentrations in triplicate wells using Viromer Red (Lipocalyx). […] Furthermore, when interrogated with excitation rates of 1 hz, 2 hz, and 3 hz, CatCH transfected cells were able to be driven at higher beat rates (3 hz) up to 72 hours post-transfection (FIG. 8) compared to ChR2 transfected cells. As the amount of mRNA and structure of the opsin are very similar, this difference can be inferred as due to enhanced opsin sensitivity—fewer opsins per cell were necessary to drive cardiac action potentials. When opsin expression was low, such as at timepoints several days following transfection, cardiac cells could only be driven at the slower rate of 1 hz successfully.

Data set [5] relates to Human iPS cell-derived cardiomyocytes. In words: MEA functional testing of mRNA-expressed opsins with light excitation. Type of data set: cell-based. As for the experimental part: Human iPS cell-derived cardiomyocytes were seeded into 48 well Axion MEA plates and cultured for 2 weeks until completely synchronized electrical activity (beat rate) was observed. Cells were transfected with ChR2 mRNA, JAWs mRNA, delivery vehicle only, or a mixture of both mRNAs using a modified PEI derivative (Lypocalyx Gmbh). Transfected cells were assayed using the Axion Maestro MEA and Lumos light excitation device at 6 hours and 24 hours post transfection. Assays were comprised of electrical readout (16 electrodes per well) with either no stimulus, blue light stimulus (drives firing in ChR2-transfected cells), orange light stimulus (inhibits firing in JAWs-transfected cells), or blue light impulse stimulus with a period of constant orange light.
As a preliminary step, the inventors determined the optimal amount of delivery vehicle to transfect cells for adequate function of the expressed mRNA, defined as complete control of beat rate with ChR2 and conversely complete inhibition of firing with JAWs. […] Delivery vehicle alone had no effect on native cell beat rates, thus it is likely that higher amounts of protein can be generated if opsin function is required more rapidly. […] Using 0.1 ul of delivery vehicle, all three wells (100%) were paced via light (FIG. 3C).
The inventors next tested expression and function of ChR2 and JAWS (inhibitory opsin) in iPS-derived cardiomyocytes. Here, 500 ng each of ChR2 and JAWS mRNA were delivered to iPS-derived cardiomyocytes in an MEA plate (FIG. 9). The next day, cells were paced using pulsed blue light stimulation (arrows). At the same time, orange light was used for several seconds (bars) to prevent cardiomyocytes from beating.

Take `Cc1cccc(-c2nn(C(=S)Nc3ccccc3)cc2-c2ccnc3ccccc23)n1` [A83-01, reference compound]: in data set [1], the “effect on ventricular pacing / block” value is given as “reversed the block”.

B1: CatCH: mRNA encoding a modified ChR2 with a single amino acid substitution, CatCH (nucleic acid)
DNA: GGGAAATAAGAGAGAAAAGAAGAGTAAGAAGAAATATAAGAGCCACCATGGATTACGGCGGAGCCCTGTCTGCCGTGGGCAGAGAACTGCTGTTCGTGACCAACCCCGTGGTCGTGAACGGCAGCGTGCTGGTGCCTGAGGACCAGTGTTACTGCGCCGGCTGGATCGAGAGCAGAGGCACAAACGGCGCCCAGACCGCCTCTAACGTGCTGCAGTGGCTGGCCGCTGGCTTCAGCATCCTGCTGCTGATGTTCTACGCCTACCAGACCTGGAAGTCTACCTGCGGCTGGGAAGAGATCTACGTGTGCGCCATCGAGATGGTCAAAGTGATCCTGGAATTCTTCTTCGAATTCAAAAACCCCTCCATGCTGTACCTGGCCACCGGCCACAGAGTGCAGTGGCTGAGATACGCCGAGTGGCTGCTGACCTGCCCCGTGATCTGCATCCACCTGAGCAACCTGACCGGCCTGTCCAACGACTACAGCAGACGGACCATGGGCCTGCTGGTGTCCGACATCGGCACAATCGTGTGGGGCGCCACAAGCGCCATGGCCACAGGCTACGTGAAAGTGATCTTCTTCTGCCTGGGCCTGTGCTACGGCGCCAACACATTCTTCCACGCCGCCAAGGCCTACATCGAGGGCTACCACACAGTGCCCAAGGGCAGATGCAGACAGGTCGTGACAGGCATGGCCTGGCTGTTCTTCGTGTCCTGGGGCATGTTCCCCATCCTGTTCATCCTGGGCCCTGAGGGCTTCGGCGTGCTGTCTGTGTACGGCTCTACCGTGGGCCACACCATCATCGACCTGATGAGCAAGAACTGTTGGGGACTGCTGGGCCACTACCTGAGAGTGCTGATCCACGAGCACATCCTGATTCACGGCGACATCAGAAAGACCACCAAGCTGAACATCGGCGGCACCGAGATCGAGGTGGAAACCCTGGTGGAAGATGAGGCCGAGGCTGGCGCTGTGCCAGCCGCTGCTACAGGTAAGCCTATCCCTAACCCTCTCCTCGGTCTCGATTCTACGTGATAAGCTGCCTTCTGCGGGGCTTGCCTTCTGGCCATGCCCTTCTTCTCTCCCTTGCACCTGTACCTCTTGGTCTTTGAATAAAGCCTGAGTAGGAAGGC
modifications: mRNA transcribed from DNA
Take B1: the “optimal RNA dose to achieve reliable pacing over time” value in data set [2] (0.1, 1 and 10 ng/1000 cells tested) was 1 ng/1,000 cells. Also, the “capture rate versus Channelrhodopsin 2 (ChR2)” value in data set [2] (475 nm blue LED, 0 to 100% power, 1 to 15 milliseconds, 2 Hz for 30 seconds) is reported as “superior sensitivity”. The “days post-transfection with highest capture rates at lowest stimulation thresholds” value in data set [2] (blue light stimulation) lay within 1 to 3 days. In addition, in data set [3], the “time after transfection to membrane localization” value was “roughly 12 hours”, the “time by which expression dropped off significantly” value was at most 5 days and the “time of peak expression” value stood at 24 h. Also, the “light sensitivity compared with ChR2 based on MEA measurements” value in data set [4] (125 ng of CatCH versus 1000 ng of ChR2) was “much higher sensitivity than ChR2”. Also, in data set [4] (1 hz, 2 hz, 3 hz LED pulsing, time course), the “maximum beat rate comparison with ChR2” value is “able to sustain higher frequencies”. In addition, the “LED light intensity to which the opsin responds” value in data set [4] (24 hours post transfection) turned out to be 5%. Besides, the “light required for electrical response relative to ChR2” value in data set [4] (24 hours post-transfection) came to 15 times. In addition, in data set [4] (LED pulsing, maximum intensity excitation light), the “time post-transfection up to which cells could be driven at 3 hz” value is on record as “up to 72 hours”. Further, the “beat rate at which cells were able to be driven” value in data set [4] (excitation rates of 1 hz, 2 hz, and 3 hz, up to 72 hours post-transfection) came to 3 hz.

B2: JAWS mRNA: mRNA encoding the inhibitory opsin JAWS, activated by constant orange or red light (nucleic acid)
chain: GGGAAATAAGAGAGAAAAGAAGAGTAAGAAGAAATATAAGAGCCACCATGACCGCCGTGTCTACCACAGCCACAACAGTGCTGCAGGCCACACAGAGCGACGTGCTGCAAGAGATCCAGAGCAACTTCCTGCTGAACAGCAGCATCTGGGTCAACATTGCCCTGGCCGGCGTTGTGATCCTGCTGTTTGTGGCCATGGGCCGCGATCTGGAAAGCCCTAGAGCCAAGCTGATCTGGGTCGCCACAATGCTGGTGCCCCTGGTGTCTATCAGCAGCTATGCCGGACTGGCCTCTGGCCTGACAGTGGGCTTTCTGCAAATGCCTCCTGGACACGCCCTGGCTGGACAAGAAGTTCTGTCTCCCTGGGGCAGATACCTGACCTGGACCTTCAGCACCCCTATGATTCTGCTGGCCCTGGGACTGCTGGCCGATACAGATATCGCCAGCCTGTTCACCGCCATCACCATGGACATCGGGATGTGTGTGACAGGCCTGGCCGCTGCTCTGATCACAAGCAGCCATCTGCTGAGATGGGTGTTCTACGGAATCAGCTGCGCCTTCTTCGTGGCCGTGCTGTATGTGCTGCTGGTGCAGTGGCCTGCCGATGCTGAAGCTGCCGGAACCTCTGAGATCTTCGGCACCCTGAGAATCCTGACCGTGGTGCTGTGGCTGGGCTACCCTATTCTGTTTGCCCTGGGCTCTGAAGGCGTGGCACTGCTGTCTGTGGGAGTGACAAGCTGGGGCTATAGCGGCCTGGACATCCTGGCCAAATACGTGTTCGCCTTTCTGCTCCTCAGATGGGTCGCCGCCAATGAGGGAACAGTGTCTGGCTCTGGCATGGGCATTGGATCTGGCGGAGCTGCCCCTGCTGATGATCCAGCTGCTGCCACCTATCCTTACGACGTGCCCGACTACGCCTGATGAGCTGCCTTCTGCGGGGCTTGCCTTCTGGCCATGCCCTTCTTCTCTCCCTTGCACCTGTACCTCTTGGTCTTTGAATAAAGCCTGAGTAGGAAGGCTCGCTTTCTTGCTGTCCAATTTCTATTAAAGGTTCCTTTGTTCCCTAAGTCCAACTACTAAACTGGGGGATATTATGAAGGGCCTTGAGCATCTGGATTCTGCCTAATAAAAAACATTTATTTTCATTGCGC
Turning to B2, in data set [5] (500 ng each of ChR2 and JAWS mRNA, next day, pulsed blue light and orange light), the “opsin function in dual transfection” value is “function of both opsins”. Besides, in data set [5] (period of 10 seconds orange light), the “inhibition of beating under continuously applied orange light” value is “inhibited beating completely”. Moreover, the “time post-transfection at which complete capture (synchronization or complete inhibition) was observed” value in data set [5] (second highest and highest amounts of delivery vehicle) was found to be 24 h.

Values taken from patent US20210000879A1, “METHODS AND COMPOSITIONS FOR MRNA-BASED MODULATION AND DETECTION OF CELL PHENOTYPES” (Georgia Tech Research Corporation, priority 2018, published 2021).
